Assay results as given in article PMC5071567.

How the values were obtained:
transthyretin = transthyretin (UniProt P02766); conditions: cited from earlier work
[1] = biological target: megalin (LRP-2) (mouse (endogenous in cultured hippocampal neurons)) (UniProt A2ARV4)
Sequence of megalin (LRP-2) (mouse (endogenous in cultured hippocampal neurons)) (A2ARV4 26-4660): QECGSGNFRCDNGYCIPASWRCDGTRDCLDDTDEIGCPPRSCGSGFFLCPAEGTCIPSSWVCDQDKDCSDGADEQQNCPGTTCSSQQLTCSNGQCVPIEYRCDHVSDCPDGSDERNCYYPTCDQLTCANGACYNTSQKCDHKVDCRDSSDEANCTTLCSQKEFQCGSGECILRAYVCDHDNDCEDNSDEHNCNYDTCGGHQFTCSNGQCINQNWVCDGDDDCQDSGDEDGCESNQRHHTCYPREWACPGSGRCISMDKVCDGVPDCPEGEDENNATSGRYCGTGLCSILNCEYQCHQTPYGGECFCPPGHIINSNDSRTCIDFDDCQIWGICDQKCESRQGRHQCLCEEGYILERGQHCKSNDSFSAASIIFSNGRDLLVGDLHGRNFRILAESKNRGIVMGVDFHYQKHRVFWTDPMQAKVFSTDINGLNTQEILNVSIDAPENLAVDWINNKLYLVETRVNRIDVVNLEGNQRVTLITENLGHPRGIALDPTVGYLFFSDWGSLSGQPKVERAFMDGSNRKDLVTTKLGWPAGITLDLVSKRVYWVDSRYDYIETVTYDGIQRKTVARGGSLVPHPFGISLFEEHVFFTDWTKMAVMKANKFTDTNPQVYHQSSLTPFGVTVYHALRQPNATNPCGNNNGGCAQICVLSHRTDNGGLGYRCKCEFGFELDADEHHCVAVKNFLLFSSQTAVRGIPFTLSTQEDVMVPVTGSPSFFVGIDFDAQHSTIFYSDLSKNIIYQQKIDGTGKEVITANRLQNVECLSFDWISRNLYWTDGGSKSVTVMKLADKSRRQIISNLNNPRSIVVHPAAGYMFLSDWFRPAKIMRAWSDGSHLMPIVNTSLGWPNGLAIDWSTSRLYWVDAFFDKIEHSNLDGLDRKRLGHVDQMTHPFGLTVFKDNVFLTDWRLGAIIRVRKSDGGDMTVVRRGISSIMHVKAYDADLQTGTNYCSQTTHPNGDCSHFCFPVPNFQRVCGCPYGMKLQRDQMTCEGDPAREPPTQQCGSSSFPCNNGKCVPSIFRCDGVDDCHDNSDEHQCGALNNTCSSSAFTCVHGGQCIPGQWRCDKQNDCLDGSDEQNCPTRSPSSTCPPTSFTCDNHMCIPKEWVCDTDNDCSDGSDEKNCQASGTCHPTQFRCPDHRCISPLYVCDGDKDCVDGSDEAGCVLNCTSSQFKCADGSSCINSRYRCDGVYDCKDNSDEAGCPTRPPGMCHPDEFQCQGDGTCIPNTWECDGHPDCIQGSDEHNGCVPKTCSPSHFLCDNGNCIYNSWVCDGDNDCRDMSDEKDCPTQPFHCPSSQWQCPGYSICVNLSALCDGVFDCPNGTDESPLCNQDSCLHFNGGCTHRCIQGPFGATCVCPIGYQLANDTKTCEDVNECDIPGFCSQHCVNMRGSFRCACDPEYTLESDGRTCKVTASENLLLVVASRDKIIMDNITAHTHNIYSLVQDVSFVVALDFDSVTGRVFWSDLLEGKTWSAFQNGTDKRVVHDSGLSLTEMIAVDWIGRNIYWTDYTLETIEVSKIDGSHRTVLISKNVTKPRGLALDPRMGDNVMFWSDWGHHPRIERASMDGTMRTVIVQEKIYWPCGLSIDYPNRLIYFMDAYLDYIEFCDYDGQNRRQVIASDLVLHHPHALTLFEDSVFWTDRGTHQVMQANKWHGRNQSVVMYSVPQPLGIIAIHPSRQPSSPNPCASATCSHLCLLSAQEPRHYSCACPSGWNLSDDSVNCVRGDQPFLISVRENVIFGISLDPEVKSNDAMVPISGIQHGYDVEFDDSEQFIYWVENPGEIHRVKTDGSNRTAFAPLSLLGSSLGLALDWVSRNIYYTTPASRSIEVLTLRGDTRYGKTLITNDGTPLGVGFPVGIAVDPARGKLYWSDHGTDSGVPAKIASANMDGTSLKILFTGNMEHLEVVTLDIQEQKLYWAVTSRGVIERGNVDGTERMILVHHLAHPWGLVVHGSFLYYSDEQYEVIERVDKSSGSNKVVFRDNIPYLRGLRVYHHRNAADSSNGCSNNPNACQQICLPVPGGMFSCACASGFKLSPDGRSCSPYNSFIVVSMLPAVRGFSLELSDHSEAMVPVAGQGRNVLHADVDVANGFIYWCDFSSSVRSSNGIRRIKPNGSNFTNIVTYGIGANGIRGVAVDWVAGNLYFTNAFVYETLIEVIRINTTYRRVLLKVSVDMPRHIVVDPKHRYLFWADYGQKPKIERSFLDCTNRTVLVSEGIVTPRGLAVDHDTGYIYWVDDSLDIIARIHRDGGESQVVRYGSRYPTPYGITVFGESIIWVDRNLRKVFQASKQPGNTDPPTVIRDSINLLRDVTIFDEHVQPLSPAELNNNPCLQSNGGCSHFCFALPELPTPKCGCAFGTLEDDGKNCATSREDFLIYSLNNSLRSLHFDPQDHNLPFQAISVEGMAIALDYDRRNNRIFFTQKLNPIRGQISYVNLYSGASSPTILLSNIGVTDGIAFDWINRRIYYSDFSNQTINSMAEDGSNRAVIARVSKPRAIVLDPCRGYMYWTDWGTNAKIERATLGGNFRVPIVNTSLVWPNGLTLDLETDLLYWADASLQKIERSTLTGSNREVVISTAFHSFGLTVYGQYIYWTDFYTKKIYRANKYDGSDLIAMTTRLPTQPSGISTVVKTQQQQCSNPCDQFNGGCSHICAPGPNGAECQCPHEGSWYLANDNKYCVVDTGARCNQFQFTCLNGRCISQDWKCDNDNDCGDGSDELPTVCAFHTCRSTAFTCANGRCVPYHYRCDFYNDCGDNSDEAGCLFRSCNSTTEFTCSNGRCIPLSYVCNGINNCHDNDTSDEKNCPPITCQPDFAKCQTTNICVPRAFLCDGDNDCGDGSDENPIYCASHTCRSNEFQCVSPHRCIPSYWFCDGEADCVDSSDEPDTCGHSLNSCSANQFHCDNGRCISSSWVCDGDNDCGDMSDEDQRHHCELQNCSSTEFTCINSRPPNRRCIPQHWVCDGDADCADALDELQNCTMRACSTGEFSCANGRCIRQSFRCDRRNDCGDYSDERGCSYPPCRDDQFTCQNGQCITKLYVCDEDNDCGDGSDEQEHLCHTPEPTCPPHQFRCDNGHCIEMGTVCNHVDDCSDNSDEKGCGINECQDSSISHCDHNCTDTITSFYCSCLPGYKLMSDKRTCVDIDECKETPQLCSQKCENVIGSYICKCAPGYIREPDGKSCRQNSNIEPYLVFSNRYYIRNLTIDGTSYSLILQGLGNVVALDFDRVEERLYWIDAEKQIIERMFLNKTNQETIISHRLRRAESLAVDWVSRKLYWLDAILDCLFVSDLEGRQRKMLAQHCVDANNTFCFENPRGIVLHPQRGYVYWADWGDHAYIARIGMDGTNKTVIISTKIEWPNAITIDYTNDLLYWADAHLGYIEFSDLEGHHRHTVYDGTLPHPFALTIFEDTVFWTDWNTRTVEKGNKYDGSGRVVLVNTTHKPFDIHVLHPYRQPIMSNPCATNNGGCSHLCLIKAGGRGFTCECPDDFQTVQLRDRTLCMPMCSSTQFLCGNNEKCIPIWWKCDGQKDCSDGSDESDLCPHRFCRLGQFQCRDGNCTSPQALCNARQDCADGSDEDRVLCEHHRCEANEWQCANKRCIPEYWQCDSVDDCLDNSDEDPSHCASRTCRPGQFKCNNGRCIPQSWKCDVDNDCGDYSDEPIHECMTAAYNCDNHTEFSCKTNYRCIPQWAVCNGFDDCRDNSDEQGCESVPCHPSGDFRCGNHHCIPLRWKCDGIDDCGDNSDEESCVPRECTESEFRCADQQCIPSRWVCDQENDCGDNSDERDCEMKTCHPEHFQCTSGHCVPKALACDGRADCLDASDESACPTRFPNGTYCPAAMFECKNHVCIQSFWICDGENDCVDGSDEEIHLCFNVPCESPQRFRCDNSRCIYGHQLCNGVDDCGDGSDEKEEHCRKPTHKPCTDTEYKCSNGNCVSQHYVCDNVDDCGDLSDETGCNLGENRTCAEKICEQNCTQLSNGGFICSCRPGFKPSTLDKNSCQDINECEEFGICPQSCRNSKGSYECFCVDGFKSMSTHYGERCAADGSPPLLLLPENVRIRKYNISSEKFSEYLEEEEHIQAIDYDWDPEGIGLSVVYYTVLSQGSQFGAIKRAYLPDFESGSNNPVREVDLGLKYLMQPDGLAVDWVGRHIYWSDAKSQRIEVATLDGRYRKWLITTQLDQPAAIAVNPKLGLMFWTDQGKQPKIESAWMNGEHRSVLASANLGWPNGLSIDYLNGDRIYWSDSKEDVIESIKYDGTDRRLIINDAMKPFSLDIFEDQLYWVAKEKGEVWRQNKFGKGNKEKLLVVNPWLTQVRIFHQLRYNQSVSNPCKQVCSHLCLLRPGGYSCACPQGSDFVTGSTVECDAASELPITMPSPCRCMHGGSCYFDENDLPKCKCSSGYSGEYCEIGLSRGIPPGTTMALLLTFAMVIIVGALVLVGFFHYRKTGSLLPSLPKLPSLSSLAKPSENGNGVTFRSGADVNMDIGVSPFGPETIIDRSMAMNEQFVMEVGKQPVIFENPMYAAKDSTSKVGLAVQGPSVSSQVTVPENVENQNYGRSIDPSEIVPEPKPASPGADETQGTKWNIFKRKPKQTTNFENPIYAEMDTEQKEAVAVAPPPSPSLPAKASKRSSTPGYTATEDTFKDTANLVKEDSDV

Row | activation of Src (phospho-Tyr416) by western blot in TTR KO cultured hippocampal neurons, 30 min after mouse TTR (55 μg/ml) [1] | rise of CREB phosphorylation (Ser133) by western blot in TTR KO cultured hippocampal neurons stimulated with mouse TTR (55 μg/ml) [1] | rise of phosphorylated Akt (Ser473) by western blot in TTR KO cultured hippocampal neurons, 30 min after mouse TTR (55 μg/ml) [1] | rise of phosphorylated ERK by western blot in TTR KO cultured hippocampal neurons, 30 min after mouse TTR (55 μg/ml) [1] | Substance | Kd (transthyretin)
1 |  |  |  |  | megalin (from UniProt P98164) | 500 nM
2 | 30 to 50% | 20% | 23% | 35% | recombinant mouse transthyretin (from UniProt P07309 21-147) (ligand) | 
